Assay results from patent US20190241655A1.

Experiments:
[1] = target: human PI16 (Peptidase inhibitor 16) expressed on the cell surface (human) (UniProt Q6UXB8); assay: flow cytometry, ILT3Fc on PI16-transfected 3A9 cells
[2] = target: human PI16 (Peptidase inhibitor 16) expressed on the cell surface (human) (UniProt Q6UXB8); assay: flow cytometry, ILT3Fc cross-linked with anti-human Fc antibody on PI16-transfected 3A9 cells
[3] = target: ILT3-CD3z fusion protein on reporter cells (human); assay: cell-based or functional assay
ILT3-CD3z fusion protein on reporter cells (human), sequence (Q8NHJ6 22-259): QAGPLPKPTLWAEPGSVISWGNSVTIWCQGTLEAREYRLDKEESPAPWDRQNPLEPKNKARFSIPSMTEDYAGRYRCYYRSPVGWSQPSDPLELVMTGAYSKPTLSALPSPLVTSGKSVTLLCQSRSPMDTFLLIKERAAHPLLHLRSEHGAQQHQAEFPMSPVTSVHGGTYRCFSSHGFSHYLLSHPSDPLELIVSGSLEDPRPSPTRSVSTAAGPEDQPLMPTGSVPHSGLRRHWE

## ILT3Fc (Fc fusion)
[1]
  percent of cells stained: 8.3%
[2]
  percent of cells stained: 23%

## human PI16 (Peptidase inhibitor 16) expressed on the cell surface (from UniProt Q6UXB8 28-463) (ligand)
[3]
  luciferase activity of ILT3 reporter cells: 2 log
